Drawing on PMC11176775 (2024), this text covers Kd for two molecules.

This test has as its target Apurinic/apyrimidinic-endonuclease 1 (UniProt P27695 1-318). Kind of test: SPR. On the technique in general: Surface plasmon resonance follows binding to a sensor surface in real time, without labels.

Chain of Apurinic/apyrimidinic-endonuclease 1 (P27695 whole entry): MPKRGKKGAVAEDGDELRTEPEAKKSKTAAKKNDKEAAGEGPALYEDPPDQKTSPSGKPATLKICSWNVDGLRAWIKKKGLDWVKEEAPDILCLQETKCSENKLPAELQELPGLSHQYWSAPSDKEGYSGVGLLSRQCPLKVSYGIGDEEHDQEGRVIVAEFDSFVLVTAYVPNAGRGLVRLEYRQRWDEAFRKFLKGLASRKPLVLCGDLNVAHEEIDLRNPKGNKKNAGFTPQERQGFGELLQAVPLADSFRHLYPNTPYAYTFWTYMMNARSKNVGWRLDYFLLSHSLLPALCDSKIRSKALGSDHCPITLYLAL

B1: LIGIIIα▵BRCT (1–755 amino acids) (domain or fragment)
chain: MAEQRFCVDYAKRGTAGCKKCKEKIVKGVCRIGKVVPNPFSESGGDMKEWYHIKCMFEKLERARATTKKIEDLTELEGWEELEDNEKEQITQHIADLSSKAAGTPKKKAVVQAKLTTTGQVTSPVKGASFVTSTNPRKFSGFSAKPNNSGEAPSSPTPKRSLSSSKCDPRHKDCLLREFRKLCAMVADNPSYNTKTQIIQDFLRKGSAGDGFHGDVYLTVKLLLPGVIKTVYNLNDKQIVKLFSRIFNCNPDDMARDLEQGDVSETIRVFFEQSKSFPPAAKSLLTIQEVDEFLLRLSKLTKEDEQQQALQDIASRCTANDLKCIIRLIKHDLKMNSGAKHVLDALDPNAYEAFKASRNLQDVVERVLHNAQEVEKEPGQRRALSVQASLMTPVQPMLAEACKSVEYAMKKCPNGMFSEIKYDGERVQVHKNGDHFSYFSRSLKPVLPHKVAHFKDYIPQAFPGGHSMILDSEVLLIDNKTGKPLPFGTLGVHKKAAFQDANVCLFVFDCIYFNDVSLMDRPLCERRKFLHDNMVEIPNRIMFSEMKRVTKALDLADMITRVIQEGLEGLVLKDVKGTYEPGKRHWLKVKKDYLNEGAMADTADLVVLGAFYGQGSKGGMMSIFLMGCYDPGSQKWCTVTKCAGGHDDATLARLQNELDMVKISKDPSKIPSWLKVNKIYYPDFIVPDPKKAAVWEITGAEFSKSEAHTADGISIRFPRCTRIRDDKDWKSATNLPQLKELYQLSKEKADFTVVA
One may read the Kd as the constant that tells how readily two partners part at equilibrium. Low values mean a tighter complex, high ones a looser complex. B1: the Kd stood at 1050 nM.

B2: LIGIIIα▵ZnF (170–922 amino acids) (domain or fragment)
chain: RHKDCLLREFRKLCAMVADNPSYNTKTQIIQDFLRKGSAGDGFHGDVYLTVKLLLPGVIKTVYNLNDKQIVKLFSRIFNCNPDDMARDLEQGDVSETIRVFFEQSKSFPPAAKSLLTIQEVDEFLLRLSKLTKEDEQQQALQDIASRCTANDLKCIIRLIKHDLKMNSGAKHVLDALDPNAYEAFKASRNLQDVVERVLHNAQEVEKEPGQRRALSVQASLMTPVQPMLAEACKSVEYAMKKCPNGMFSEIKYDGERVQVHKNGDHFSYFSRSLKPVLPHKVAHFKDYIPQAFPGGHSMILDSEVLLIDNKTGKPLPFGTLGVHKKAAFQDANVCLFVFDCIYFNDVSLMDRPLCERRKFLHDNMVEIPNRIMFSEMKRVTKALDLADMITRVIQEGLEGLVLKDVKGTYEPGKRHWLKVKKDYLNEGAMADTADLVVLGAFYGQGSKGGMMSIFLMGCYDPGSQKWCTVTKCAGGHDDATLARLQNELDMVKISKDPSKIPSWLKVNKIYYPDFIVPDPKKAAVWEITGAEFSKSEAHTADGISIRFPRCTRIRDDKDWKSATNLPQLKELYQLSKEKADFTVVAGDEGSSTTGGSSEENKGPSGSAVSRKAPSKPSASTKKAEGKLSNSNSKDGNMQTAKPSAMKVGEKLATKSSPVKVGEKRKAADETLCQTKVLLDIFTGVRLYLPPSTPDFSRLRRYFVAFDGDLVQEFDMTSATHVLGSRDKNPAAQQVSPEWIWACIRKRRLVAPC
In turn, B2 yielded a Kd of 4.9 nM.
